Measurements: patent publication US20220289837A1 (VIB VZW, published 2022)
Values belong to the binder of their own block, whether it stands above or below them.

Assays:
[1] = target: T1, 2PT-F508del-CFTR expressed in BHK-21 cells (human, UniProt P13569 1-1480, I539T; S492P; A534P; F508del); experiment: flow cytometry on permeabilised BHK-21 cells expressing 2PT-F508del-CFTR, anti-tag antibody and Alexa Fluor 488 secondary
T1 construct: Full-length F508del CFTR stabilized by the three point mutations; permeabilized cells in flow cytometry
Source text: (§1) Graph depicts one representative of at least three independent experiments. (FIG. 4F) Average median fluorescence (fold over negative control) for each of the three representative nanobodies as illustrated in (FIG. 4D) and (FIG. 4E). Quantification of at least 3 independent experiments (±SEM). (g) Immunoblot of CFTR from solubilized BHK-21 cells pulled-down with His-tagged nanobodies, including a non-CFTR nanobody as a control. Eluted nanobodies-CFTR complexes were separated by SDS-PAGE and presence of CFTR was detected with mAb 596 antibody after immunoblotting. Arrows indicate the mature (band C) and immature (band B) forms of CFTR. Representative of at least 3 independent experiments. (FIG. 4H) Flow cytometry analysis of nanobodies T2a, T8 and G3a on BHK-21 cells expressing 2PT-F508del showing increased labelling for T2a and G3a, but not T8. (FIG. 4I) Quantification of data illustrated in […]. Average of 3 independent experiments (±SEM).
Parental BHK-21 cells (ATCC; CCL-10) and cells stably overexpressing human wt-CFTR^{[43,44,47]} or 2PT-F508del-CFTR, as described above, were permeabilized with 0.01% n-Dodecyl-β-D-Maltopyranoside β-DDM—Inalco) at least for 2 h on ice. In the meantime, cells were incubated with 50 μg/ml nanobodies and DRAQ7 (0.3 μM—Biostatus) to monitor the permeabilization state. Nanobody binding was detected by using His-tag specific antibody (Invitrogen, catalogue number MA1-135, 1 μg/ml) or Myc-tag specific antibody (Invitrogen, catalogue number 13-2500, 2 μg/ml) and then anti-mouse-Alexa Fluor 488 (Invitrogen, catalogue number A11001, 1.3 μg/ml) at least for 30 min on ice. Cells were washed one time between each step by centrifugation (200×g for 5 min at 4° C.). All incubations (100 μl) and washes (1.5 ml) were performed in PBS with 6% fetal bovine serum (FBS) and 0.01%13-DDM on ice. Cells fluorescence was measured with Gallios Flow Cytometer (Beckman Coulter). Data were analyzed with Kaluza software.

[2] = target: 2PT-NBD1 (human CFTR nucleotide-binding domain 1, residues 387-646, with S492P, A534P, I539T) (human, UniProt P13569 388-646, biotinylated for the ELISA (sites not given)); experiment: cell-based or functional assay
[3] = target: T2, Purified human wt-CFTR (His10-SUMO*-CFTRFLAG-EGFP), PKA phosphorylated (human, UniProt P13569 1-1480, PKA phosphorylated (sites not given)); experiment: cell-based or functional assay
[4] = target: T2, Purified human wt-CFTR …; experiment: ELISA, purified wt-CFTR immobilised on nickel-coated plate, nanobody titrated
Source text: as §1, with “Quantification” for “Graph depicts one representative of at least three independent experiments. (FIG. 4F) Average median fluorescence (fold over negative control) for each of the three representative nanobodies as illustrated in (FIG. 4D) and (FIG. 4E). Quantification”
(§2) Strep-Tactin XT coated microplate (iba Life Science) was coated overnight at 4° C. with Twin-Strep-tagged nanobodies (5 μg/ml). […] CFTR binding was detected with monoclonal antibodies L12B4, MM13, 154, 660, 570, 596 specific to CFTR obtained from the CFTR Antibody Distribution Program (http://cftrantibodies.web.unc.edu/available-antibodies)46 and then anti-mouse-HRP antibody (Millipore, catalogue number: AP308P, 0.5 μg/ml) for 1 h 30 min at 4° C. […] Nanobody binding was detected with Myc-tag specific antibody (Sigma, catalogue number: C3956, 0.5 μg/ml) and then anti-rabbit-HRP antibody (Cell Signaling, catalogue number: 7074S, 1:1000 dilution) for 1 h 30 min at 4° C. […]

[5] = target: T2, Purified human wt-CFTR …; experiment: ELISA, Twin-Strep nanobody immobilised, concentration of purified wt-CFTR varied
Source text: as §1, with “Quantification” for “Graph depicts one representative of at least three independent experiments. (FIG. 4F) Average median fluorescence (fold over negative control) for each of the three representative nanobodies as illustrated in (FIG. 4D) and (FIG. 4E). Quantification”
as §2

T2 sequence (P13569 whole entry): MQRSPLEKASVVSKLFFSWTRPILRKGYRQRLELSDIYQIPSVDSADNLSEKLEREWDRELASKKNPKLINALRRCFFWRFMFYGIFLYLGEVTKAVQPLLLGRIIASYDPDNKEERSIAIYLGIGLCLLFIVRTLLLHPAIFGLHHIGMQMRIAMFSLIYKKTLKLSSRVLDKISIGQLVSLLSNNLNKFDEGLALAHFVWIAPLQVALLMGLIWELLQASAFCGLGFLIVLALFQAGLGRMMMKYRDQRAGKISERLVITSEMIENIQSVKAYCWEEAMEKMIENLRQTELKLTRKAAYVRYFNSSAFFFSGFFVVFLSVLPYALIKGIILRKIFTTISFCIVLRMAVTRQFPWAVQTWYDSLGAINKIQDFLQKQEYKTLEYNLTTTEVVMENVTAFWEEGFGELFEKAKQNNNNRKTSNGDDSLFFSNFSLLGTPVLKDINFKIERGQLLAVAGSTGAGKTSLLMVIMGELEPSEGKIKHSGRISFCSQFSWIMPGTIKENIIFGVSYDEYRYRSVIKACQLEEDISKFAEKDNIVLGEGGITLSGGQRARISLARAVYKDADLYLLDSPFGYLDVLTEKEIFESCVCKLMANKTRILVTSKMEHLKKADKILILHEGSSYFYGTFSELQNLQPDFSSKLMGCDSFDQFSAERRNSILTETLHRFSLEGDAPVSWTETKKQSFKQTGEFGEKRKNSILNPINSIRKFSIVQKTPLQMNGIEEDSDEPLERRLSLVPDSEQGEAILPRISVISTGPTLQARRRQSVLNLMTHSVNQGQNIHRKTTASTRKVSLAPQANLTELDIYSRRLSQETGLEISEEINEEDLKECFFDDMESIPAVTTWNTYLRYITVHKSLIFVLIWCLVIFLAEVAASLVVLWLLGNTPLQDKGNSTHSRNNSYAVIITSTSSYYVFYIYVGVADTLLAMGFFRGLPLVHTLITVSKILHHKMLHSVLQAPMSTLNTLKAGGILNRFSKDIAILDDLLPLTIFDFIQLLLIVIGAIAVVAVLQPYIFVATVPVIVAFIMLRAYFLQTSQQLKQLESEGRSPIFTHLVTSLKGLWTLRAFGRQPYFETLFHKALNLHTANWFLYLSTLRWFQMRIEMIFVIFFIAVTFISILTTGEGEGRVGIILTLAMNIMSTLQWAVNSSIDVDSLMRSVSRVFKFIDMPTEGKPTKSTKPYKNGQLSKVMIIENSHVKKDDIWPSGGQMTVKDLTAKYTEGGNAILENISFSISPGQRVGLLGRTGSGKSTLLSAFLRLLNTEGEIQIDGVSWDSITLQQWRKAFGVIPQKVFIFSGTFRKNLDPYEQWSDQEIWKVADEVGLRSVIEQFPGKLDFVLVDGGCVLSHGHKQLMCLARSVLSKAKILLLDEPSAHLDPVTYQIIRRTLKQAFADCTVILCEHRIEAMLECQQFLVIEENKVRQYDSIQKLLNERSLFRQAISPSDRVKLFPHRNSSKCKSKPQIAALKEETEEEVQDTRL
T1 sequence (P13569 other isoform, or with tags, fused parts or gaps I539T/S492P/A534P/F508del): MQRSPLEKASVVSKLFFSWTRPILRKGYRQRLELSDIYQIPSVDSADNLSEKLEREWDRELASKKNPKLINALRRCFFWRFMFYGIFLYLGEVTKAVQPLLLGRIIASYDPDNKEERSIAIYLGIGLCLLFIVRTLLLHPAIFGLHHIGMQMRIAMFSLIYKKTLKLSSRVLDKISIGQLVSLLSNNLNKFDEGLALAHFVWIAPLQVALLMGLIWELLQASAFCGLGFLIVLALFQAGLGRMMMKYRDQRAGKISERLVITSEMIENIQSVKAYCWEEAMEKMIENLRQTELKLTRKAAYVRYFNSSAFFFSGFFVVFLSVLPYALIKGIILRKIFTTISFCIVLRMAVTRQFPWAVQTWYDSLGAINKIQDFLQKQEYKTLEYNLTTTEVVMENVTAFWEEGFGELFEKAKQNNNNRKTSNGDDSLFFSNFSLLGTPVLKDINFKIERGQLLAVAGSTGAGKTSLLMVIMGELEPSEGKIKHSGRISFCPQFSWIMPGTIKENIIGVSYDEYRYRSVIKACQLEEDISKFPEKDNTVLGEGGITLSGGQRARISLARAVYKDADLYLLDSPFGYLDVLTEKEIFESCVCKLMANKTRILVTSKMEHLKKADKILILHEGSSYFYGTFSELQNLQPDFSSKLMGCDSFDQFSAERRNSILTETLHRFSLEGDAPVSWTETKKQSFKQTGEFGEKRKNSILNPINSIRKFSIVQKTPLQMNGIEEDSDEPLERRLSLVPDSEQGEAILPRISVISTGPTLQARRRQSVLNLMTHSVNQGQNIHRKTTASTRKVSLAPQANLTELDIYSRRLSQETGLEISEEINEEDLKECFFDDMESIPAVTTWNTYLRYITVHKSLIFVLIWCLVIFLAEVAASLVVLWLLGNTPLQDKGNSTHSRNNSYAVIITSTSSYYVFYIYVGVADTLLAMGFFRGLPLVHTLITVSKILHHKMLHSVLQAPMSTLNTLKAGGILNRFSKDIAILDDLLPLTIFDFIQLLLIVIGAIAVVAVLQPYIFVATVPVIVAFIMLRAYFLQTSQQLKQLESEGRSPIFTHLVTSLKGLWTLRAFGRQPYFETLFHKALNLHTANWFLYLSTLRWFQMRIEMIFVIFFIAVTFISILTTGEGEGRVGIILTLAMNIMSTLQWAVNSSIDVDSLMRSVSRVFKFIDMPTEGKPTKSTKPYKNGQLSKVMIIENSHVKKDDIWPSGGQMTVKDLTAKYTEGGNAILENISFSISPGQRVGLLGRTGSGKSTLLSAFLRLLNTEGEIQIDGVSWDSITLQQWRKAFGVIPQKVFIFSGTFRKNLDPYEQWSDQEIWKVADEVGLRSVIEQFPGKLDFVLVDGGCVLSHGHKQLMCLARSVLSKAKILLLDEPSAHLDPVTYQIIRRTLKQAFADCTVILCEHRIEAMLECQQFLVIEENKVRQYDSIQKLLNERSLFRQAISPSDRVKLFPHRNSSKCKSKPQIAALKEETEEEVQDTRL
2PT-NBD1 (human CFTR nucleotide-binding domain 1, residues 387-646, with S492P, A534P, I539T), sequence (P13569 388-646 V470M/S492P/A534P/I539T limits assumed): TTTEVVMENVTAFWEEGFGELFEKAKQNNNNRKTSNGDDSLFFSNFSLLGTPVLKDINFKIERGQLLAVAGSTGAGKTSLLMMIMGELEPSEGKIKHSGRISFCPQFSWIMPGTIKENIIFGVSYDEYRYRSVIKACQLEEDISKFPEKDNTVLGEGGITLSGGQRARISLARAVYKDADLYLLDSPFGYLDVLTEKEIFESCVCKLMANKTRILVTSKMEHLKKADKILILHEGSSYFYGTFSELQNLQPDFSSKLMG

- binding result [1]: no binding
- ATPase activity (% of PKA-phosphorylated CFTR) [3]: 60%
- EC50 (read off the curve) [4]: ~300 nM
- EC50 (read off the curve) [5]: ~2 nM
B1: Nanobody T8 (VHH, not shown: small tags and cut ends)
VHH: QVQLQESGGGLVQPGGSLRLSCAASGSTSSINAMGWYRQAPGKQREPVAISSSGGDTRYAEPVKGRFTISRDNAQNKVYLQMNSLKPEDTAVYYCWLNWGRTSVNSWGQGTQVTVSS
notes: Llama nanobody; also called Nb T8; T8 Nb
- increase of Tm (thermal shift assay, DSF) [2]: 9.3 °C

- binding result [1]: binds
- ATPase activity (% of PKA-phosphorylated CFTR) [3]: 50%
- EC50 (read off the curve) [4]: ~200 nM
- EC50 (read off the curve) [5]: ~3 nM
B2: Nanobody T2a (VHH, not shown: small tags and cut ends)
VHH: QVQLQESGGGLVQAGGSLRLSCAASGSIFRIDAMGWYRQAPGKQRELVAHSTSGGSTDYADSVKGRFTISRDNAKNTVYLQMNSLKPEDTAVYYCNADVRTRWYASNNYWGQGTQVTVSS
notes: Llama nanobody; also called Nb T2a; T2a Nb
- increase of Tm (thermal shift assay, DSF) [2]: 11.2 °C
